Source: PMC10978497, “The GTPase activating protein Gyp7 regulates Rab7/Ypt7 activity on late endosomes” (The Journal of Cell Biology, 2024)

Biological target: T1, guanine nucleotide dissociation inhibitor (GDI) (yeast, UniProt P39958 1-451)
T1 construct: expressed as GST-PreSc-GDI; also called Gdi1; source: E. coli BL21 DE3 (Rosetta), purified (glutathione sepharose, cleaved from the beads with PreScission protease); not shown: GST, N-terminal, cleaved
T1 sequence (looked up): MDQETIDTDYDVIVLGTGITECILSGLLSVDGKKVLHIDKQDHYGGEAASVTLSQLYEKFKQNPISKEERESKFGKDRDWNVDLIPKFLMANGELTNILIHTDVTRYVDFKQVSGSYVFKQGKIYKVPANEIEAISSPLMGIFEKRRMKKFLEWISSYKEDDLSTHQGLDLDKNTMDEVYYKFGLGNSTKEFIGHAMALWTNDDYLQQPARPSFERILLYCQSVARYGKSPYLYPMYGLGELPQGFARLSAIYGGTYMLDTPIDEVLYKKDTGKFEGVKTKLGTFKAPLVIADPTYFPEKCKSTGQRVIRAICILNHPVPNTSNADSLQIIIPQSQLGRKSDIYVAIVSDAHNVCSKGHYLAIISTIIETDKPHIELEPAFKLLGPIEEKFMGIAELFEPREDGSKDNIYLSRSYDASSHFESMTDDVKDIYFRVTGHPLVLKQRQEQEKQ
Assay: SEC; after in vitro prenylation (Rab GTPase, GDI, His6-Mrs6, Bet4 His6-TEV-Bet2 at 10:9:1:1, 37°C, 1.5 h) and removal of His6-Mrs6 and Bet4 His6-TEV-Bet2 on Ni2+ resin, the supernatant was loaded on a Superdex200 increase column; prenylation buffer 50 mM HEPES-NaOH pH 7.4, 150 mM NaCl, 1.5 mM MgCl2, 1 mM DTT
Conditions: both partners purified

B1: prenylated Ypt7 (natural protein, yeast, UniProt P32939 1-208, looked up)
chain: MSSRKKNILKVIILGDSGVGKTSLMHRYVNDKYSQQYKATIGADFLTKEVTVDGDKVATMQVWDTAGQERFQSLGVAFYRGADCCVLVYDVTNASSFENIKSWRDEFLVHANVNSPETFPFVILGNKIDAEESKKIVSEKSAQELAKSLGDIPLFLTSAKNAINVDTAFEEIARSALQQNQADTEAFEDDYNDAINIRLDGENNSCSC
modifications: prenylated in vitro with geranylgeranyl pyrophosphate (C-terminal prenyl anchor; positions not stated)
notes: Ypt7, the Rab7-like GTPase of yeast; The methods list GST-TEV-Ypt7 (cleaved off the beads with TEV protease), Ypt7-His6 and, once, His6-TEV-Ypt7; I surmise that the prenylated Ypt7 came from GST-TEV-Ypt7, because it has a free C-terminus; also called Rab7-like Ypt7; Ypt7-GDP; source: E. coli BL21 DE3 (Rosetta), purified; preloaded with GDP and prenylated in vitro (Mrs6, Bet4-Bet2, geranylgeranyl …)
  binding result: binds
